From the RNAGym collection of RNA variant scans (doi:10.7554/elife.80360) come the findings set out here.

First the molecules themselves.
B1: CPEB3 Ribozyme (parent)
chain: GGGGGCCACAGCAGAAGCGUUCACGUCGCGGCCCCUGUCAGAUUCUGGUGAAUCUGCGAAUUCUGCUGU

The variants in the data set derive from B1. In words: self-cleavage, relative activity (ratio to wild type); higher = more cleavage; co-transcriptional.
On to GGGGGCCACAGCAGAAGCGUUCACAUCGCGGCCCCUGUCAGAUUCUGGUGAGUCUGCGAAUUCUGCUGU, for which the self-cleavage was found to be 0.193.
Take GGGGGCCACAGCAGAAGCGUUCACAUCGCGGCCCCUGUCAGAUUCUGGUGACUCUGCGAAUUCUGCUGU: the self-cleavage was 0.253.
In the case of GGGGGCCACAGCAGAAGCGUUCACAUCGCGGCCCCUGUCAGAUUCUGGUGAUUCUGCGAAUUCUGCUGU it was 0.213.
The result for GGGGGCCACAGCAGAAGCGUUCACAUGGCGGCCCCUGUCAGAUUCUGGUGAAUCUGCGAAUUCUGCUGU reads 0.208; that for GGGGGCCACAGCAGAAGCGUUCACAUUGCGGCCCCUGUCAGAUUCUGGUGAAUCUGCGAAUUCUGCUGU, 0.169; that for GGGGGCCACAGCAGAAGCGUUCACAUAGCGGCCCCUGUCAGAUUCUGGUGAAUCUGCGAAUUCUGCUGU, 0.162.
The result for GGGGGCCACAGCAGAAGCGUUCAUGUCGCGGCCCCUGUCAGAUUCUGGUGAAUCUGCGAAUUCUGCCGU reads 0.833; that for GGGGGCCACAGCAGAAGCGUUCAUGUCGCGGCCCCUGUCAGAUUCUGGUGAAUCUGCGAAUUCUGCGGU, 0.761; that for GGGGGCCACAGCAGAAGCGUUCACAUCGCGGCCCCUGUCAGAUUCUGGUGAAUCUGCGAUUUCUGCUGU, 0.188.
GGGGGCCACAGCAGAAGCGUUCACAUCGCGGCCCCUGUCAGAUUCUGGUGAAUCUGCGAGUUCUGCUGU: the self-cleavage stood at 0.171.
In the case of GGGGGCCACAGCAGAAGCGUUCAUGUCGCGGCCCCUGUCAGAUUCUUGUGAAUCUGCGAAUUCUGCUGU it was 0.909; in that of GGGGGCCACAGCAGAAGCGUUCAUGUCGCGGCCCCUGUCAGAUUCUAGUGAAUCUGCGAAUUCUGCUGU, 0.869.
The result for GGGGGCCACAGCAGAAGCGUUCAUGUCGCGGCCCCUGUCAGAUUCUGGGGAAUCUGCGAAUUCUGCUGU reads 0.762; that for GGGGGCCACAGCAGAAGCGUUCAUGUCGCGGCCCCUGUCAGACUCUGGUGAAUCUGCGAAUUCUGCUGU, 0.691; that for GGGGGCCACAGCAGAAGCGUUCAUGUCGCGGCCCCUGUCAGAGUCUGGUGAAUCUGCGAAUUCUGCUGU, 0.418.
The result for GGGGGCCACAGCAGAAGCGUUCAUGUCGCGGCCCCUGUCAGAAUCUGGUGAAUCUGCGAAUUCUGCUGU reads 0.679; that for GGGGGCCACAGCAGAAGCGUUCACAUCGCGGCCCCUGUCAGAUUCUGGUGAAUCUGCGAAUUCUGCUGU, 0.202.
Consider GGGGGCCACAGCAGAAGCGUUCACAUCGUGGCCCCUGUCAGAUUCUGGUGAAUCUGCGAAUUCUGCUGU, for which the self-cleavage worked out at 0.163.
As for GGGGGCCACAGCAGAAGCGUUCACAUCGGGGCCCCUGUCAGAUUCUGGUGAAUCUGCGAAUUCUGCUGU, the self-cleavage was determined as 0.216.
The result for GGGGGCCACAGCAGAAGCGUUCACAUCGAGGCCCCUGUCAGAUUCUGGUGAAUCUGCGAAUUCUGCUGU reads 0.181.
GGGGGCCACAGCAGAAGCGUUCAUGUCGCGGCCCCUGUCAGAUUCAGGUGAAUCUGCGAAUUCUGCUGU: the self-cleavage amounted to 0.852.
The result for GGGGGCCACAGCAGAAGCGUUCAUGUCGCGGCCCCUGUCAGAUUCCGGUGAAUCUGCGAAUUCUGCUGU reads 0.714; that for GGGGGCCACAGCAGAAGCGUUCACAUCGCGGCCCCUGUCAGAUUCUGGUGGAUCUGCGAAUUCUGCUGU, 0.22; that for GGGGGCCACAGCAGAAGCGUUCACAUCGCGGCCCCUGUCAGAUUCUGGUGUAUCUGCGAAUUCUGCUGU, 0.166.
The result for GGGGGCCACAGCAGAAGCGUUCAUGUCGCGGCCCCUUUCAGAUUCUGGUGAAUCUGCGAAUUCUGCUGU reads 0.251.
The result for GGGGGCCACAGCAGAAGCGUUCAUGUCGCGGCCCCUGUCAGAUUCUGGUGAAUCUGCGAAUUCAGCUGU reads 0.42; that for GGGGGCCACAGCAGAAGCGUUCAUGUCGCGGCCCCUGUCAGAUUCUGGUGAAUCUGCGAAUUCCGCUGU, 0.531.
With GGGGGCCACAGCAGAAGCGUUCAUGUCGCGGCCCCUGUCAGAUACUGGUGAAUCUGCGAAUUCUGCUGU, the self-cleavage came out at 0.687.
Take GGGGGCCACAGCAGAAGCGUUCAUGUCGCGGCCCCUGUCAGAUCCUGGUGAAUCUGCGAAUUCUGCUGU: the self-cleavage turned out to be 0.633.
Regarding GGGGGCCACAGCAGAAGCGUUCAUGUCGCGGCCCCUGUCAGAUGCUGGUGAAUCUGCGAAUUCUGCUGU, the self-cleavage worked out at 0.703.
In the case of GGGGGCCACAGCAGAAGCGUUCAUGUCGCGGCCCCUGUCAGAUUCUGGUGAAUCUGCGAACUCUGCUGU, the self-cleavage was 0.353.
In the case of GGGGGCCACAGCAGAAGCGUUCAUGUCGCGGCCCCUGUCAGAUUCUGGUGAAUCUGCGAAGUCUGCUGU it was 0.397; in that of GGGGGCCACAGCAGAAGCGUUCAUGUCGCGGCCCCUGUCAGAUUCUGGUGAAUCUGCGAAAUCUGCUGU, 0.431.
Take GGGGGCCACAGCAGAAGCGUUCAUGUCGCGGCCCCUGUCAGAUUCUGGUCAAUCUGCGAAUUCUGCUGU: the self-cleavage turned out to be 0.795.
In the case of GGGGGCCACAGCAGAAGCGUUCAUGUCGCGGCCCCUGUCAGAUUCUGGUAAAUCUGCGAAUUCUGCUGU it was 0.838; in that of GGGGGCCACAGCAGAAGCGUUCAUGUCGCGGCCCCUGUCAGAUUCUGGUGAAUCUGCUAAUUCUGCUGU, 0.879; in that of GGGGGCCACAGCAGAAGCGUUCAUGUCGCGGCCCCUGUCAGAUUCUGGUGAAUCUGCCAAUUCUGCUGU, 0.742.
Take GGGGGCCACAGCAGAAGCGUUCAUGUCGCGGCCCCUGUCAGAUUCUGGUGAAUCUCCGAAUUCUGCUGU: the self-cleavage stood at 0.307.
In the case of GGGGGCCACAGCAGAAGCGUUCAUGUCGCGGCCCCUGUCAGAUUCUGGUGAAUCUUCGAAUUCUGCUGU it was 0.528.
With GGGGGCCACAGCAGAAGCGUUCAUGUCGCGGCCCCUGUCAGAUUCUGGUGAAUCUACGAAUUCUGCUGU, the self-cleavage was 0.61.
On to GGGGGCCACAGCAGAAGCGUUCAUGUCGCGGCCCCUGUCAAAUUCUGGUGAAUCUGCGAAUUCUGCUGU, for which the self-cleavage came to 0.394.
GGGGGCCACAGCAGAAGCGUUCAUGUCGCGGCCCCUGUCAUAUUCUGGUGAAUCUGCGAAUUCUGCUGU: the self-cleavage came out at 0.461.
In the case of GGGGGCCACAGCAGAAGCGUUCAUGUCGCGUCCCCUGUCAGAUUCUGGUGAAUCUGCGAAUUCUGCUGU it was 0.271; in that of GGGGGCCACAGCAGAAGCGUUCAUGUCGCGACCCCUGUCAGAUUCUGGUGAAUCUGCGAAUUCUGCUGU, 0.316; in that of GGGGGCCACAGCAGAAGCGUUCAUGUCGCGGCCCCGGUCAGAUUCUGGUGAAUCUGCGAAUUCUGCUGU, 0.182.
In the case of GGGGGCCACAGCAGAAGCGUUCAUGUCGCUGCCCCUGUCAGAUUCUGGUGAAUCUGCGAAUUCUGCUGU it was 0.199; in that of GGGGGCCACAGCAGAAGCGUUCAUGUCGCAGCCCCUGUCAGAUUCUGGUGAAUCUGCGAAUUCUGCUGU, 0.389.
The result for GGGGGCCACAGCAGAAGCGUUCAUGUCGCGGCCCCUGUCAGAUUCUGGUGAAUCUGCGAAUUCUGUUGU reads 0.734; that for GGGGGCCACAGCAGAAGCGUUCACAUCGCGGCCCCUGUCUGAUUCUGGUGAAUCUGCGAAUUCUGCUGU, 0.153.
On to GGGGGCCACAGCAGAAGCGUUCACAUCGCGGCCCCUGUCCGAUUCUGGUGAAUCUGCGAAUUCUGCUGU, for which the self-cleavage was determined as 0.178.
The result for GGGGGCCACAGCAGAAGCGUUCAUGUCGCGGCCCCUGUCAGAUUCUGGUGAAUCUGCGAAUUCUACUGU reads 0.39; that for GGGGGCCACAGCAGAAGCGUUCAUGUCGCGGCCCCUGUCAGAUUCUGGUGAAUCUGCGAAUUCUUCUGU, 0.352; that for GGGGGCCACAGCAGAAGCGUUCAUGUCGCGGCCCCUGACAGAUUCUGGUGAAUCUGCGAAUUCUGCUGU, 0.418.
The result for GGGGGCCACAGCAGAAGCGUUCAUGUCGCGGCCCCUGCCAGAUUCUGGUGAAUCUGCGAAUUCUGCUGU reads 0.582.
In the case of GGGGGCCACAGCAGAAGCGUUCAUGUCGCGGCCCCUGUCAGAUUCUGGUGAAUCUGCGAAUUCUGCUCU it was 0.928.
For GGGGGCCACAGCAGAAGCGUUCAUGUCGCGGCCCCUGUCAGAUUCUGGUGAAUCUGCGAAUUCUGCUUU, the self-cleavage came to 0.96.
In the case of GGGGGCCACAGCAGAAGCGUUCACAUCGCGGCACCUGUCAGAUUCUGGUGAAUCUGCGAAUUCUGCUGU it was 0.206.
The result for GGGGGCCACAGCAGAAGCGUUCACAUCGCGGCGCCUGUCAGAUUCUGGUGAAUCUGCGAAUUCUGCUGU reads 0.206; that for GGGGGCCACAGCAGAAGCGUUCACAUCGCGGCUCCUGUCAGAUUCUGGUGAAUCUGCGAAUUCUGCUGU, 0.276; that for GGGGGCCACAGCAGAAGCGUUCAUGUCGCGGCCCCUGUCAGAUUCUGGUGAAUCUGCGAAUUCUGCUGG, 0.909.
As for GGGGGCCACAGCAGAAGCGUUCAUGUCGCGGCCCCUGUCAGAUUCUGGUGAAUCUGCGAAUUCUGCUGA, the self-cleavage came out at 0.895.
In the case of GGGGGCCACAGCAGAAGCGUUCACAUCGCGGGCCCUGUCAGAUUCUGGUGAAUCUGCGAAUUCUGCUGU it was 0.131; in that of GGGGGCCACAGCAGAAGCGUUCACAUCGCGGUCCCUGUCAGAUUCUGGUGAAUCUGCGAAUUCUGCUGU, 0.255.
The result for GGGGGCCACAGCAGAAGCGUUCAUAUCGCGGCCCCUGUCAGAUUCUGGUGAAUCUGCGAAUUCUGCUGU reads 0.212; that for GGGGGCCACAGCAGAAGCGUUCAUCUCGCGGCCCCUGUCAGAUUCUGGUGAAUCUGCGAAUUCUGCUGU, 0.105.
In the case of GGGGGCCACAGCAGAAGCGUUCACAUCGCGGCCCCUGUCAGUUUCUGGUGAAUCUGCGAAUUCUGCUGU it was 0.178.
In the case of GGGGGCCACAGCAGAAGCGUUCACAUCGCGGCCCCUGUCAGCUUCUGGUGAAUCUGCGAAUUCUGCUGU, the self-cleavage came to 0.161.
As to GGGGGCCACAGCAGAAGCGUUCACAUCGCGGCCCCUGUCAGGUUCUGGUGAAUCUGCGAAUUCUGCUGU, the self-cleavage turned out to be 0.203.
The result for GGGGGCCACAGCAGAAGCGUUCACAUCGCGGCCACUGUCAGAUUCUGGUGAAUCUGCGAAUUCUGCUGU reads 0.196.
The result for GGGGGCCACAGCAGAAGCGUUCAUGUCGCGGCCCCUGUCAGAUUCUGAUGAAUCUGCGAAUUCUGCUGU reads 0.815; that for GGGGGCCACAGCAGAAGCGUUCAUGUCGCGGCCCCUGUCAGAUUCUGUUGAAUCUGCGAAUUCUGCUGU, 0.889; that for GGGGGCCACAGCAGAAGCGUUCAUGUCGCGGCCCCUGUCAGAUUCUGCUGAAUCUGCGAAUUCUGCUGU, 0.86.
In the case of GGGGGCCACAGCAGAAGCGUUCAUGUCGCGGCCCCUGUCAGAUUCUGGUGAACCUGCGAAUUCUGCUGU it was 0.53; in that of GGGGGCCACAGCAGAAGCGUUCAUGUCGCGGCCCCUGUCAGAUUCUGGUGAAUCUGCGAAUCCUGCUGU, 0.505.
Consider GGGGGCCACAGCAGAAGCGUUCAUGUCGCGGCCCCUGUCAGAUUCUGGUGAAUCUGCGAAUACUGCUGU, for which the self-cleavage amounted to 0.441.
In the case of GGGGGCCACAGCAGAAGCGUUCACAUCGCGGCCCCUGUCAGAUUCUGGUGAAUCUGCGUAUUCUGCUGU it was 0.17; in that of GGGGGCCACAGCAGAAGCGUUCACAUCGCGGCCCCUGUCAGAUUCUGGUGAAUCUGCGGAUUCUGCUGU, 0.208; in that of GGGGGCCACAGCAGAAGCGUUCACAUCGCGGCCCCUGUCAGAUUCUGGUGAAUCUGCGCAUUCUGCUGU, 0.157.
